Results published in US20190112392A1 (Ablynx, published 2019).
Positions count from the first letter of the chain named.

T1: human CD20 on cells (human, UniProt P11836 1-297)
T1 sequence (looked up): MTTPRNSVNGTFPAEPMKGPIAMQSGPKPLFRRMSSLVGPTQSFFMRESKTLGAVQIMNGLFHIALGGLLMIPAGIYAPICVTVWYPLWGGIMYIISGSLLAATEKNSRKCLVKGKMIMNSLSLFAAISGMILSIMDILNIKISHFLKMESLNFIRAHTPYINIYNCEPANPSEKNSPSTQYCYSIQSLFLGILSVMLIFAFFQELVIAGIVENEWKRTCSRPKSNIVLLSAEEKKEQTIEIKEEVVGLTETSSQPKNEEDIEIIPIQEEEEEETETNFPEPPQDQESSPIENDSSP

T2: T cell receptor alpha/beta on purified primary human T cells (human, UniProt P01848 1-140; P01850 1-176)
T2 construct: whole, on cells; also called human primary T cells
T2 TCR alpha (looked up): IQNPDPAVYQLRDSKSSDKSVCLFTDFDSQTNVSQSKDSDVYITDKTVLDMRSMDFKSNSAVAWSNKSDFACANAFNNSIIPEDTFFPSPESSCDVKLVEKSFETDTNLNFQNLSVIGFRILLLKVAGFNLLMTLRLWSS
T2 TCR beta (looked up): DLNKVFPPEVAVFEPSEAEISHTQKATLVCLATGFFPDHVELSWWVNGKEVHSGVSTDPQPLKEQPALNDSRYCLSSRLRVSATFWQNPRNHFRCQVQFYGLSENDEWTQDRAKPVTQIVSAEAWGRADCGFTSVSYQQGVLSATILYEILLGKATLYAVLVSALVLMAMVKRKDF

B1: T017000042 (bispecific antibody)
chain: EVQLVESGGGLVQPGGSLRLSCAASGDVHKINILGWYRQAPAKEREMVAHITIGDATDYADSAKGRFTISRDEAKNMVYLQMNSLKPEDTAVYFCRAYSRIYPYNYWGQGTLVTVSSGGGGSGGGGSGGGGSGGGGSGGGGSGGGGSGGGGSEVQLVESGGGLVQPGGSLRLSCTFSGGTFSSYTMGWFRQAPGKEREFVAEVRWGGVTTYSNSLKDRFSISEDSVKNAVYLQMNSLKPEDTAVYYCAAVRQMYMTVVPDYWGQGTLVTVSSGAADYKDHDGDYKDHDIDYKDDDDKGAAHHHHHH
notes: TCR x CD20 bispecific Nanobody construct (cluster A); entry includes the FLAG3-HIS6 tag; also called T0170055A02-35GS-20CD019C07-FLAG3-HIS6
B2: T017000074 (bispecific antibody)
chain: B1 chain with A23V, I33F, A42G, M47K, T52S, A56Q, A74S, Y98F, N105D
notes: TCR x CD20 bispecific Nanobody construct (cluster A); entry includes the FLAG3-HIS6 tag; also called T0170056G05-35GS-20CD019C07-FLAG3-HIS6
B3: T017000038 (bispecific antibody)
chain: EVQLVESGGGLVQPGGSLRLSCAASGEIGRINFYRWYRQAPGNQREVVATITIADKTDYADSAKGRFTISRDESRNMVYLQMSSLKPEDTAVYFCHAGSRLYPYDYWGQGTLVTVSSGGGGSGGGGSGGGGSGGGGSGGGGSGGGGSGGGGSEVQLVESGGGLVQPGGSLRLSCTFSGGTFSSYTMGWFRQAPGKEREFVAEVRWGGVTTYSNSLKDRFSISEDSVKNAVYLQMNSLKPEDTAVYYCAAVRQMYMTVVPDYWGQGTLVTVSSGAADYKDHDGDYKDHDIDYKDDDDKGAAHHHHHH
notes: TCR x CD20 bispecific Nanobody construct (cluster C); entry includes the FLAG3-HIS6 tag; also called T0170061G01-35GS-20CD019C07-FLAG3-HIS6
B4: T017000107 (other)
chain: EVQLVESGGGLVQAGGSLRLSCAASGRTFSSYVMGWFRQATGKEREFVATIAWDSGSTYYADSVKGRFTISRDNAKNTVHLQMNSLKPEDTAVYYCAASYNVYYNNYYYPISRDEYDYWGQGTLVTVSSGGGGSGGGGSGGGGSGGGGSGGGGSGGGGSGGGGSEVQLVESGGGSVQAGGSLRLSCAASGDTYGSYWMGWFRQAPGKEREGVAAINRGGGYTVYADSVKGRFTISRDTAKNTVYLQMNSLRPDDTADYYCAASGVLGGLHEDWFNYWGQGTLVTVSSGGGGSGGGGSGGGGSGGGGSGGGGSGGGGSGGGGSEVQLVESGGGLVQPGGSLRLSCVASGDVHKINFLGWYRQAPGKEREKVAHISIGDQTDYADSAKGRFTISRDESKNMVYLQMNSLKPEDTAVYFCRAFSRIYPYDYWGQGTLVTVSSGAADYKDHDGDYKDHDIDYKDDDDKGAAHHHHHH
notes: EGFR x CEACAM5 x TCR multispecific Nanobody construct; entry includes the FLAG3-HIS6 tag; also called EGFR038G07-35GS-NbCEA5-35GS-T0170056G05-FLAG3-HIS6
B5: T017000051 (bispecific antibody)
chain: EVQLVESGGGLVQPGGSLRLSCTFSGGTFSSYTMGWFRQAPGKEREFVAEVRWGGVTTYSNSLKDRFSISEDSVKNAVYLQMNSLKPEDTAVYYCAAVRQMYMTVVPDYWGQGTLVTVSSGGGGSGGGGSGGGGSGGGGSGGGGSGGGGSGGGGSEVQLVESGGGLVQPGGSLRLSCAASGEIGRINFYRWYRQAPGNQREVVATITIADKTDYADSAKGRFTISRDESRNMVYLQMSSLKPEDTAVYFCHAGSRLYPYDYWGQGTLVTVSSGAADYKDHDGDYKDHDIDYKDDDDKGAAHHHHHH
notes: CD20 x TCR bispecific Nanobody construct (cluster C); entry includes the FLAG3-HIS6 tag; also called 20CD019C07-35GS-T0170061G01-FLAG3-HIS6
B6: T017000055 (bispecific antibody)
chain: EVQLVESGGGLVQPGGSLRLSCTFSGGTFSSYTMGWFRQAPGKEREFVAEVRWGGVTTYSNSLKDRFSISEDSVKNAVYLQMNSLKPEDTAVYYCAAVRQMYMTVVPDYWGQGTLVTVSSGGGGSGGGGSGGGGSGGGGSGGGGSGGGGSGGGGSEVQLVESGGGLVQPGGSLRLSCAASGDVHKINILGWYRQAPAKEREMVAHITIGDATDYADSAKGRFTISRDEAKNMVYLQMNSLKPEDTAVYFCRAYSRIYPYNYWGQGTLVTVSSGAADYKDHDGDYKDHDIDYKDDDDKGAAHHHHHH
notes: entry includes the FLAG3-HIS6 tag; also called 20CD019C07-35GS-T0170055A02-FLAG3-HIS6
B7: T017000031 (bispecific antibody)
chain: EVQLVESGGGLVQPGGSLRLSCITSGETFKINIWGWYRQAPGKQRELVASLTIGGATNYADSVKGRFTISEDSAKNTVYLQMNSLKPEDTAVYFCNAKSRLYPYDYWGQGTLVTVSSGGGGSGGGGSGGGGSGGGGSGGGGSGGGGSGGGGSEVQLVESGGGLVQPGGSLRLSCTFSGGTFSSYTMGWFRQAPGKEREFVAEVRWGGVTTYSNSLKDRFSISEDSVKNAVYLQMNSLKPEDTAVYYCAAVRQMYMTVVPDYWGQGTLVTVSSGAADYKDHDGDYKDHDIDYKDDDDKGAAHHHHHH
notes: TCR x CD20 bispecific Nanobody construct (cluster B); entry includes the FLAG3-HIS6 tag; also called T0170055C07-35GS-20CD019C07-FLAG3-HIS6

Tests used:
[1] = target: T3, T cell receptor alpha/beta on primary cynomolgus T cells (cynomolgus); experiment: cell-based or functional assay
human CD20 on cells [2] = target: T1, human CD20 on cells; experiment: cell-based or functional assay
human CD20 on cells [3] = target: T1, human CD20 on cells; experiment: cell-based or functional assay; remark: listed apart in the source
[4] = target: T3, T cell receptor alpha/beta on primary …; experiment: cell-based or functional assay; remark: listed apart in the source
human CD20 on cells [5] = target: T1, human CD20 on cells; experiment: flow cytometry, Ramos cells
[6] = target: T2, T cell receptor alpha/beta on purified …; experiment: flow cytometry, purified primary human T cells
EGFR on cells [7] = target: T4, EGFR on cells (UniProt P00533 25-1210, limits assumed); experiment: flow cytometry, HER14 cells
T4 construct: whole, on cells; also called HER14 cells (NIH3T3 transfected with EGFR); EGFR on LS174T and LoVo cells

EGFR on cells [8] = target: T4, EGFR on cells; experiment: cell-based or functional assay

Row | Binder | IC50, flow cytometry based cynomolgus T cell mediated B cell (Ramos) killing assay [1] [nM] | IC50, flow cytometry based human T cell mediated Ramos killing assay, E:T 10:1 (human CD20 on cells [2]) [nM] | IC50, xCELLigence human T cell mediated CHO-K1 CD20 killing assay, E:T 30:1, 44 h (human CD20 on cells [3]) [nM] | IC50, xCELLigence cynomolgus T cell mediated CHO-K1 human CD20 killing assay, E:T 30:1 [4] [nM] | EC50 (human CD20 on cells [5]) [nM] | EC50 [6] [nM] | EC50 (EGFR on cells [7]) [nM] | Top (EGFR on cells [7]) | IC50, xCELLigence human T cell mediated killing of HER14 cells, E:T 15, 50-60 h (EGFR on cells [8]) [nM]
1 | B1 | 0.17 | 5.7 | 4.2 | 0.89 | 20 | 230 | – | – | –
2 | B2 | 0.24 | 0.92 | 1.5 | 0.12 | 16 | 190 | – | – | –
3 | B3 | – | 2.7 | 4.1 | – | 21 | > 100 | – | – | –
4 | B4 | – | – | – | – | – | – | 1.6 | 146000 | 0.14
5 | B5 | – | 0.57 | 27 | – | 2.7 | > 100 | – | – | –
6 | B6 | 0.569 | 0.53 | 1.4 | 0.99 | 1.8 | 130 | – | – | –
7 | B7 | 0.79 | 1.1 | 2.1 | 1.2 | 23 | 350 | – | – | –
